Results published in US20130251731A1, “Tau Acetylation in the Pathogenesis of Alzheimers Disease and Other Related Tauopathies” (THE TRUSTEES OF THE UNIVERSITY OF PENNSYLVANIA, priority 2012, published 2013).

Biological target: microtubules of transfected QBI-293 cells
Test: cell-based or functional assay

% MT bundling from tau-expressing cells [% bundling]	Substance
7	tau-4KQ acetylation mimetic (T40 K163/280/281/369Q) (from UniProt P10636 1-441)
50	tau-4KR non-mimetic mutant (T40 K163/280/281/369R) (from UniProt P10636 1-441)
55	wild-type tau-T40 (2N4R), not acetylated (from UniProt P10636 2-441)
40	tau-T40 K280Q mimetic (from UniProt P10636 1-441)
